± gives the standard deviation of the averaged measurements.
The sequences below were run on Saccharomyces cerevisiae (assay: protein stability index of tFT-peptide fusion (C-terminal peptide) (PSI (0-1 scale)); higher = more stable (slower turnover)). Conditions: genetic background: wild type; temperature: 30 C.
Experimental: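 Multiplexed protein stability (MPS) profiling in S. cerevisiae. Random 12-aa peptides (tFT-X12 library) are fused to the C-terminus of a sfGFP-mCherry tandem fluorescent timer, after mCherry and a GGGS linker. Cells are FACS-sorted into 8 mCherry/sfGFP bins and deep-sequenced. The protein stability index (PSI) is the read-weighted bin average, scaled from 0 (unstable) to 1 (stable). Only peptides with >10 reads are reported; cells were grown at 30 °C in SC-His with glucose.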
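Also: PSI is a weighted mean of sequencing reads over stability bins, variants kept only with over 10 reads, mCherry proximal and sfGFP distal, peptide attached via GGGS linker.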

For CIITHSQNKLNT, which protein stability index is on record?
The protein stability index was 0.724 ± 0.059.

For CKGIGRGGGVVS, which protein stability index is on record?
The protein stability index was 0.607 ± 0.051.

For CKGSGLGGGVVS, which protein stability index is on record?
Its protein stability index is 0.583 ± 0.017.

Which protein stability index does the source give for CKIDGGIIRTCR here?
Its protein stability index is 0.676 ± 0.023.

CKTYPTKALVVE was tested. Which protein stability index did it give?
Its protein stability index is 0.693 ± 0.0097.

CLAAHARFSLRL was tested. Which protein stability index did it give?
Its protein stability index is 0.65 ± 0.05.

With CLALLSYLGFTF as the sequence, how does the protein stability index read?
The protein stability index was 0.675 ± 0.069.

CLCYAWVPAPLF was tested. Which protein stability index did it give?
The protein stability index was 0.604 ± 0.018.

CLGPGTFLLFFV was tested. Which protein stability index did it give?
The protein stability index was 0.5952 ± 0.0026.

How did the protein stability index turn out when CLGPGVLVGCVC was run?
Its protein stability index is 0.402 ± 0.16.

CLLLGDALGYYG was tested. Which protein stability index did it give?
The protein stability index was 0.683 ± 0.033.

How did the protein stability index turn out when CLLSWVLDCFLV was run?
Its protein stability index is 0.548 ± 0.024.

CLPHSLPHPPPH was tested. Which protein stability index did it give?
The protein stability index was 0.6791 ± 0.0056.

How did the protein stability index turn out when CLRLAFPSGPCI was run?
Its protein stability index is 0.683 ± 0.098.

With CLSCLFFRVFAD as the sequence, how does the protein stability index read?
Its protein stability index is 0.573 ± 0.08.

CLSLPFSLFPLM was tested. Which protein stability index did it give?
The protein stability index was 0.619 ± 0.068.

CLYVGSRPPRSA was tested. Which protein stability index did it give?
The protein stability index was 0.71 ± 0.031.

CLYVTFFLPCIL was tested. Which protein stability index did it give?
Its protein stability index is 0.491 ± 0.016.

For CMFSSTSSTNVN, which protein stability index is on record?
The protein stability index was 0.731 ± 0.085.

How did the protein stability index turn out when CMGSDKAGKSVA was run?
The protein stability index was 0.681 ± 0.016.

With CNLVCFRRFLYR as the sequence, how does the protein stability index read?
The protein stability index was 0.62 ± 0.041.

CNTPGLSHELLH was tested. Which protein stability index did it give?
The protein stability index was 0.786 ± 0.11.

For CPAAWSLPCRPP, which protein stability index is on record?
Its protein stability index is 0.6599 ± 0.0018.

For CPCASEYIAFTL, which protein stability index is on record?
Its protein stability index is 0.701 ± 0.018.

Which protein stability index does the source give for CPDSFARSAVLS here?
Its protein stability index is 0.673 ± 0.074.

For CPGLYVRAYGHC, which protein stability index is on record?
The protein stability index was 0.613 ± 0.049.

With CPLAAGSFSSLS as the sequence, how does the protein stability index read?
Its protein stability index is 0.6608 ± 0.0009.

Which protein stability index does the source give for CPNFYPARNSRL here?
The protein stability index was 0.696 ± 0.2.

For CPPPIPPSRPPS, which protein stability index is on record?
The protein stability index was 0.666 ± 0.067.

With CPPSPFPPPLPR as the sequence, how does the protein stability index read?
Its protein stability index is 0.767 ± 0.094.

How did the protein stability index turn out when CPTHPLFLDSYV was run?
Its protein stability index is 0.676 ± 0.026.

CQGHFAAKTEKI was tested. Which protein stability index did it give?
The protein stability index was 0.684 ± 0.019.

CQQCLATYNKGP was tested. Which protein stability index did it give?
Its protein stability index is 0.708 ± 0.16.

For CQQIKKNKKIKN, which protein stability index is on record?
Its protein stability index is 0.661 ± 0.0026.

For CQRDYLFKSRLP, which protein stability index is on record?
Its protein stability index is 0.639 ± 0.069.

For CQSRLPSTKNRH, which protein stability index is on record?
The protein stability index was 0.695 ± 0.015.

Which protein stability index does the source give for CQWGGWGVGVGG here?
Its protein stability index is 0.761 ± 0.061.

With CQYSRRRRQELH as the sequence, how does the protein stability index read?
Its protein stability index is 0.65 ± 0.075.

Which protein stability index does the source give for CRGEGGRTVING here?
The protein stability index was 0.634 ± 0.063.

With CRGGWKCGQEKG as the sequence, how does the protein stability index read?
Its protein stability index is 0.635 ± 0.014.

Which protein stability index does the source give for CRGLRRSLGSIL here?
The protein stability index was 0.682 ± 0.063.

For CRGYRFLSEMKV, which protein stability index is on record?
Its protein stability index is 0.645 ± 0.07.

How did the protein stability index turn out when CRLANEIMYDKN was run?
Its protein stability index is 0.685 ± 0.014.

For CRLPLSTIRARP, which protein stability index is on record?
Its protein stability index is 0.724 ± 0.047.

For CRPFGVSCHIRV, which protein stability index is on record?
Its protein stability index is 0.739 ± 0.17.

With CRRSSRIKHILL as the sequence, how does the protein stability index read?
The protein stability index was 0.603 ± 0.029.

Which protein stability index does the source give for CRTIILCLLTNL here?
The protein stability index was 0.498 ± 0.024.

CRVAFGFMSRFV was tested. Which protein stability index did it give?
The protein stability index was 0.729 ± 0.067.

With CRWLAKRVKDSS as the sequence, how does the protein stability index read?
The protein stability index was 0.629 ± 0.04.

CSAAVVQSSGSE was tested. Which protein stability index did it give?
The protein stability index was 0.67 ± 0.034.

How did the protein stability index turn out when CSCGRGRLARRL was run?
Its protein stability index is 0.686 ± 0.13.

For CSCPEDGILCIF, which protein stability index is on record?
Its protein stability index is 0.62 ± 0.076.

For CSDRRVAGGRGG, which protein stability index is on record?
The protein stability index was 0.676 ± 0.073.

For CSGLFLAPSYTQ, which protein stability index is on record?
Its protein stability index is 0.713 ± 0.0096.

With CSLEREKLQEQQ as the sequence, how does the protein stability index read?
The protein stability index was 0.689 ± 0.022.

How did the protein stability index turn out when CSLTLPFFFGSL was run?
The protein stability index was 0.6771 ± 0.0026.

CSSARVLPLPVP was tested. Which protein stability index did it give?
The protein stability index was 0.661 ± 0.041.

How did the protein stability index turn out when CSSTCRCCAAFD was run?
The protein stability index was 0.641 ± 0.0086.

For CSVDSRLSMLVL, which protein stability index is on record?
The protein stability index was 0.605 ± 0.044.

With CTLMPPQSRRPP as the sequence, how does the protein stability index read?
Its protein stability index is 0.604 ± 0.057.

For CTLVSREHFGFL, which protein stability index is on record?
Its protein stability index is 0.685 ± 0.041.

How did the protein stability index turn out when CTRTREDPKIGI was run?
Its protein stability index is 0.714 ± 0.024.

How did the protein stability index turn out when CTSCDQRLQRWG was run?
Its protein stability index is 0.728 ± 0.033.

With CTYHLPFYNVLF as the sequence, how does the protein stability index read?
The protein stability index was 0.849 ± 0.19.

With CVATTHASHTSP as the sequence, how does the protein stability index read?
Its protein stability index is 0.694 ± 0.033.

How did the protein stability index turn out when CVCAIVDGGTFG was run?
Its protein stability index is 0.723 ± 0.07.

CVDSRRCCSCFC was tested. Which protein stability index did it give?
The protein stability index was 0.59 ± 0.074.

For CVDTNIERSCVC, which protein stability index is on record?
The protein stability index was 0.66182 ± 0.00042.

Which protein stability index does the source give for CVGCVVGAGVTS here?
Its protein stability index is 0.684 ± 0.049.

CVGPGGACVRSG was tested. Which protein stability index did it give?
The protein stability index was 0.6894 ± 0.0017.

How did the protein stability index turn out when CVGSVEVGHSGI was run?
Its protein stability index is 0.702 ± 0.02.

For CVKKERCDSCRV, which protein stability index is on record?
Its protein stability index is 0.715 ± 0.07.

How did the protein stability index turn out when CVLFSGLSVDGC was run?
The protein stability index was 0.7215 ± 0.004.

With CVLFYPLLLPGV as the sequence, how does the protein stability index read?
The protein stability index was 0.599 ± 0.035.

CVPLPCLPLPPS was tested. Which protein stability index did it give?
The protein stability index was 0.66 ± 0.012.

With CVPLPPVLPRSC as the sequence, how does the protein stability index read?
The protein stability index was 0.6607 ± 0.0018.

How did the protein stability index turn out when CVPLSAIFSAFT was run?
The protein stability index was 0.77 ± 0.022.

Which protein stability index does the source give for CVSYLVIFDRRY here?
The protein stability index was 0.6742 ± 0.0043.

Which protein stability index does the source give for CVTFHKGRVFLR here?
The protein stability index was 0.609 ± 0.031.

For CWQMTWSEGLGN, which protein stability index is on record?
Its protein stability index is 0.687 ± 0.038.

For CWRVGRERRGAG, which protein stability index is on record?
The protein stability index was 0.604 ± 0.013.

CWYRCLLSCLVL was tested. Which protein stability index did it give?
Its protein stability index is 0.656 ± 0.033.

Which protein stability index does the source give for CYFKTIYRNMEY here?
The protein stability index was 0.541 ± 0.032.

For CYHIAHPSAYVP, which protein stability index is on record?
Its protein stability index is 0.679 ± 0.041.

With CYTGMIRSTPLS as the sequence, how does the protein stability index read?
The protein stability index was 0.702 ± 0.064.

Which protein stability index does the source give for CYVCVDVCKRGC here?
Its protein stability index is 0.535 ± 0.18.

DACIVRFRDTYL was tested. Which protein stability index did it give?
Its protein stability index is 0.688 ± 0.018.

Which protein stability index does the source give for DANRSPEYSLNG here?
Its protein stability index is 0.7169 ± 0.0062.

For DCGYPESTGTAF, which protein stability index is on record?
The protein stability index was 0.656 ± 0.036.

Which protein stability index does the source give for DCPHGDSPRVVS here?
The protein stability index was 0.628 ± 0.046.

For DDSFNPWSVRVH, which protein stability index is on record?
Its protein stability index is 0.7154 ± 0.006.

With DDSQKLTNNNEG as the sequence, how does the protein stability index read?
The protein stability index was 0.744 ± 0.013.

DEFRVALGSVTC was tested. Which protein stability index did it give?
Its protein stability index is 0.65 ± 0.12.

For DEGLLPLPAVIP, which protein stability index is on record?
Its protein stability index is 0.746 ± 0.04.

DERLEIKERLEF was tested. Which protein stability index did it give?
The protein stability index was 0.739 ± 0.071.

With DERTTLMRGNNV as the sequence, how does the protein stability index read?
Its protein stability index is 0.651 ± 0.017.

DFAGVCRWSLRG was tested. Which protein stability index did it give?
The protein stability index was 0.6446 ± 0.0025.

Which protein stability index does the source give for DFPPRPTPLSSL here?
The protein stability index was 0.658 ± 0.033.

Reference: the supplement of paper PMC10724198
